Results on ten molecules are retold here after PMC10000358, “Development of an inhibiting antibody against equine interleukin 5 to treat insect bite hypersensitivity of horses” (Scientific Reports, 2023).

“And” between values parts separate entries of the source, which are not always exact repeats. Equal entries are not always repeated.

Experiment [1] deals with T1, equine interleukin 5 with 8 × His-tag (Equus caballus, UniProt O02699).
For experiment [2], the target named is T1, equine interleukin 5 with 8 × His-tag. In words: flow cytometry on cells; competitive cellular inhibition assay: no pre-incubation; 1000 nM-0.1 nM antibody first put on 5 x 10^5 receptor expressing cells, then 5 nM eqIL-5 (related to dimer) added for 45 min on ice; detection as before. Particulars: both partners purified. (In flow cytometry, cells or beads pass a laser one at a time.)

Experiment [3] concerns the target T2, BSA (Bos taurus, UniProt P02769).
T2 construct: BSA (serum albumin), negative control coated on the plate
Description: ELISA; unspecificity ELISA: antigens immobilised at 10 ug/mL in PBS, blocked with 2% MPBST; 100 nM eqIgG6 antibody, 1 h at RT; detected with anti horse IgG (Fc)-HRP. Particulars: both partners purified. (In an ELISA, binding on a coated surface is turned into a signal by an enzyme label.)

In experiment [4] the target is T1, equine interleukin 5 with 8 × His-tag. Description: flow cytometry on cells; cellular in vitro inhibition assay: antibody (screening 1000 nM; titration 1000 nM-0.32 nM) pre-incubated with 5 nM eqIL-5 (related to dimer), then added to 5 x 10^5 eqIL-5 receptor expressing Expi293F cells for 45 min on ice, FACS buffer (2% FCS, 5 mM EDTA in PBS); bound eqIL-5 detected by Penta-His antibody and anti mouse Fc-APC; IC50 by Logistic5 fit; single measurements. The conditions noted are these: both partners purified.

The target is the same in experiment [5]. Description: ELISA; titration ELISA: 100 ng eqIL-5/well (or 1% BSA as negative control) immobilised, blocked with 2% MPBST; eqIgG6 antibody titrated from 316 nM, 1 h at RT; detected with anti horse IgG (Fc)-HRP; EC50 by Logistic5 fit; triplicates. The conditions noted are these: both partners purified.
Experiment [6] deals with T3, equine interleukin 5 with 8 × His-tag (equine (horse), UniProt O02699 20-134).
T3 chain: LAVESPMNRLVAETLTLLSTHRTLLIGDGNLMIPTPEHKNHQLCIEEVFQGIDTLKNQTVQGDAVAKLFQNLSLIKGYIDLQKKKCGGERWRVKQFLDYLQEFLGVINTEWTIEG
Description: ELISA.

The target in experiment [7] is T2, BSA. Description: ELISA; titration ELISA: 100 ng eqIL-5/well (or 1% BSA as negative control) immobilised, blocked with 2% MPBST; eqIgG6 antibody titrated from 316 nM, 1 h at RT; detected with anti horse IgG (Fc)-HRP; EC50 by Logistic5 fit; triplicates. Particulars: both partners purified.

As a reminder, the IC50 is the point on the concentration scale where inhibition reaches its midpoint. Read a high IC50 as weaker potency in that assay. The EC50 is the concentration needed to bring the measured effect to its halfway point. A lower EC50 goes with higher potency in that assay.

T2 sequence (P02769 25-607): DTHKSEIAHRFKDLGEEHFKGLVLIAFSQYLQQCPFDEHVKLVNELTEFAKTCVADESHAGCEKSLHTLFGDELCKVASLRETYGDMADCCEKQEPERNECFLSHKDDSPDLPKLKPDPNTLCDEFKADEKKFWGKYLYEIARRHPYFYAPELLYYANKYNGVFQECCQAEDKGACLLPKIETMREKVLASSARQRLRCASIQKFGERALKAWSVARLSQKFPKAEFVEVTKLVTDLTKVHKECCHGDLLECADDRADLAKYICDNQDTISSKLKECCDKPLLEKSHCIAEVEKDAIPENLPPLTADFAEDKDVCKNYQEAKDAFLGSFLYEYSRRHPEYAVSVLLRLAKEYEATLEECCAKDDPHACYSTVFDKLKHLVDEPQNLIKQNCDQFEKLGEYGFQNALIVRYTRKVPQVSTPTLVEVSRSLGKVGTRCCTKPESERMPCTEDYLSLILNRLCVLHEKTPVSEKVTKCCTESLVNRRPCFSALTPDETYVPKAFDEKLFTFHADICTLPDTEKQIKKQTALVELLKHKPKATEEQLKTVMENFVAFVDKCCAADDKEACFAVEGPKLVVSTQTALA

B1: NOL226-2-D1 (antibody, V domains shown)
VH: EVQLVETGGGVVRPGRSLRLSCAASGFTFSSYGMHWVRQAPGKGLEWVAVISYDGSNKYYADSVKGRFTISRDNSKNTLYLQMNSLRAEDTAVYYCVKGFKIQLWFAAFDIWGQGTMVTVSS
VL: QSVLTQPPSVSVAPGQTARITCGGNNIGSKSVHWYQQKPGQAPVLVVYDDSDRPSGIPERFSGSNSGNTATLTIGRVESGDEADYYCQVWDSSSDPVVFGGGTKLTVL
Turning to B1, in experiment [1], the binding result is given as “binds”.

B2: NOL229-C3 (antibody, V domains shown)
VH: EVQLVETGGGVVQPGRSLRLSCAASGFTFRSYGMHWVRQAPGKGLEWVAVISNDGSNKYYADSVKGRFTISRDNSKNTLYLQMNSLRAEDTAVYYCAKGFKIQLWFAAFDIWGQGAMVTVSS
VL: QSVLTQPPSVSVAPGQTARITCGGNNIGSKSVHWYQQKPGQAPVLVVYDDSDRPSGIPERFSGSNTGNTATLTISRVEAGDEADYYCQVWDSSSDPVVFGGGTKLTVL
With B2, the binding result in experiment [1] is recorded as “binds”.

B3: NOL226-2-D10 (eqIgG6 format) (antibody, V domains shown)
VH: EVQLVETGGGVVQPGRSLRLSCAASGFTFSSYGMHWVRQAPGKGLEWVAVISYDGSNKYYADSVKGRFTISRDNSKNTLYLQMNSLRAEDTAVYYCVKGLKIQLWFAAFDIWGQGTMVTVSS
VL: QSVLTQPPSVSVAPGQTARITCGGNNIGSKSVHWYQQKPGQAPVLVVYDDSDRPSGIPERFSGSNSGNTATLTISRVEAGDEADYYCQVWDSSSDPVVFGGGTKLTVL
notes: as the VH of m4 (NOL162-1-F5) with A97V and F100L, both in the CDR3 of the VH; as the VL of m4 (NOL162-1-F5); also called final antibody; final candidate; source: Expi293F suspension cells, purified (HiTrap Fibro PrismA or Protein G HP)
Take B3: the values for the IC50 in experiment [2] and in experiment [4] were 9 nM and 4 nM, respectively. In experiment [3], the binding result is “no binding (tested: 100 nM)”. In experiment [5], this molecule gave an EC50 of 8.8 nM.

B4: NOL226-2-G9 (antibody, V domains shown)
VH: EVQLEETGGGVVQPGRSLRLSCAASGFTFGSYGMHWVRQAPGKGLEWVAVISYDGSNKYYADSVKGRFTISRDNSKNTLYLQMNSLRAEDTAVYYCAKGFKIQLWFAAFDIWGQGTMVTVSS
VL: QSVLTQPPSISVAPGQTARITCGGNNIGSKSVHWYHQKPGQAPVLVVYDDSDRPSGIPERFSGSNSGNTATLTISRVEAGDEADYYCQVWDSSSDPVVFGGGTKLTVL
On to B4, for which the binding result in experiment [1] is listed as “binds”.

B5: NOL162-1-F5 (eqIgG6 format) (antibody, V domains shown)
VH: EVQLVETGGGVVQPGRSLRLSCAASGFTFSSYGMHWVRQAPGKGLEWVAVISYDGSNKYYADSVKGRFTISRDNSKNTLYLQMNSLRAEDTAVYYCAKGFKIQLWFAAFDIWGQGTMVTVSS
VL: QSVLTQPPSVSVAPGQTARITCGGNNIGSKSVHWYQQKPGQAPVLVVYDDSDRPSGIPERFSGSNSGNTATLTISRVEAGDEADYYCQVWDSSSDPVVFGGGTKLTVL
notes: human VH of NOL162-1-F5 (selected from HAL9/10); human VL of NOL162-1-F5; Chimeric IgG: human VH and VL, all constant domains equine (IgG6); Selected by panning in MTP; also called parental antibody; parAB; source: Expi293F suspension cells, purified (HiTrap Fibro PrismA or Protein G HP)
Turning to B5, the IC50 in experiment [2] is 15 nM; in experiment [4], 7 nM and 12 nM. In experiment [3], the binding result was “no binding (tested: 100 nM)”. The same molecule registered an EC50 in experiment [5] of 9 nM.

B6: NOL225-2-F10 (antibody, V domains shown)
VH: QVQLQQSGGGVVQPGRSLRLSCAASGFTFSSYGMHWVRQAPGKGLEWVAVIWYDGSNKYYADSVKGRFTISRDNSKNTLYLQINSLRAEDTAVYYCARGLYGRSYFDYWGQGTLVTVSS
VL: SYELTQPPSVSVAPGQTAKIVCEGDNIGSKSVHWYQQRPGQAPVLVVYDDTDRPSGIPDRFSGSNSGNTATLTISRVEVGDEADYYCQVWDSGDGHPRVFGGGTKLTVL
Regarding B6, the binding result in experiment [1] is given as “binds”.

B7: NOL231-2-E2 (eqIgG6 format) (antibody, V domains shown)
VH: QVQLQQSEGGVVQPGRSLRLSCAASGFTFSSYGMHWVRQAPGKGLEWLAVIWYDGSNKYYADSVKGRFTISRDNSKNTLYLQMNSLRAEDTAVYYCARGLFGRSYFDYWGQGTLVTVSS
VL: SYELTQPPSVSVAPGQTAKITCEGDNIGSKSVHWYQQRPGQAPVLVVYDDTDRPSGIPDRFSGSNSGNTATLTISRVEVGDEADYYCQVWDSGDGHPRVFGGGTKLTVL
notes: source: Expi293F suspension cells, purified (HiTrap Fibro PrismA or Protein G HP)
With B7, the IC50 in experiment [4] was determined as 3 nM. Besides, the concentration giving a half-maximal response (EC50) in experiment [6] stood at 0.5 nM. In addition, the binding result in experiment [7] was “no binding (tested: 316 nM)”.

B8: NOL231-1-A3 (eqIgG6 format) (antibody, V domains shown)
VH: QVQLQQSGGGVVQPGRSLRLSCAASGFTFSSYGMHWVRQAPGKGLEWVAVIWYDGSNKYYADSVKGRFTISRDNSKNTLYLQMNSLRAEDTAVYYCARGLYGRSYFDYWGQGTLVTVSS
VL: SYELTQPPSVSVAPGQTAKIACEGDNIGSKSVHWYQQRPGQAPVLVVYDDTDRPSGIPDRFSGSNSGNTATLTISRVEVGDEADYYCQVWDSGDGNPRVFGGGTKLTVL
notes: as the VH of m3 (NOL48-1-D5); as the VL of m3 (NOL48-1-D5) with H96N in the CDR3 of the VL; source: Expi293F suspension cells, purified (HiTrap Fibro PrismA or Protein G HP)
Take B8: the midpoint of inhibition in experiment [4], the IC50, lay at 4 nM. A half-maximal response in experiment [6] (EC50) required 0.5 nM. Also, the binding result in experiment [7] is on record as “no binding (tested: 316 nM)”.

B9: NOL225-2-C1 (eqIgG6 format) (antibody, V domains shown)
VH: QVQLQQSGGGVVQPGRSLRLSCAASGFTFSSYGMHWVRQAPGKGLEWVAVIWYDGRNKYYADSVKGRFTISRDNSKNTLYLQMNSLRAEDTAVYYCARGLFGRSYFDYWGQGTLVTVSS
VL: SYELTQPPSMSVAPGQTARIACEGDNIGSKSVHWYQQRPGQAPVLVVFDDTDRPSGIPDRFSGSNSGNTATLTISRVEVGDEADYYCQVWDSGDGHPRVFGGGTKLTVL
notes: as for B7
For B9, the midpoint of inhibition in experiment [4], the IC50, lay at 4 nM. The same molecule had an EC50 in experiment [6] of 0.4 nM. Besides, the binding result in experiment [7] is on record as “no binding (tested: 316 nM)”.

B10: NOL48-1-D5 (eqIgG6 format) (antibody, V domains shown)
VH: QVQLQQSGGGVVQPGRSLRLSCAASGFTFSSYGMHWVRQAPGKGLEWVAVIWYDGSNKYYADSVKGRFTISRDNSKNTLYLQMNSLRAEDTAVYYCARGLYGRSYFDYWGQGTLVTVSS
VL: SYELTQPPSVSVAPGQTAKIACEGDNIGSKSVHWYQQRPGQAPVLVVYDDTDRPSGIPDRFSGSNSGNTATLTISRVEVGDEADYYCQVWDSGDGHPRVFGGGTKLTVL
notes: human VH of NOL48-1-D5 (selected from HAL9/10); human VL of NOL48-1-D5; Chimeric IgG: human VH and VL, all constant domains equine (IgG6); Selected by panning in solution; also called parental antibody; parAB; source: Expi293F suspension cells, purified (HiTrap Fibro PrismA or Protein G HP)
In the case of B10, the IC50 in experiment [4] was 6 nM and 12 nM. For the same molecule, the midpoint of the response in experiment [5], the EC50, lay at 1 nM. The binding result in experiment [7] was “no binding (tested: 316 nM)”.
